From patent US20150023971A1

Assays:
[1] = biological target: T1, …; test: SPOT length analysis, dot 12, HRP-S-protein detection
T1 sequence (peptide): IFRSSDFAKNFV

[2] = biological target: T2, …; test: SPOT length analysis, dot 17, HRP-S-protein detection
T2 sequence (peptide): IFRSSDFAKNF

[3] = biological target: T3, …; test: SPOT length analysis, dot 2, anti-histidine detection
T3 sequence (peptide): RIFRSSDFAKNFVQT

[4] = biological target: T4, …; test: SPOT length analysis, dot 20, HRP-S-protein detection
T4 sequence (peptide): SSDFAKNFVQT

[5] = biological target: T5, …; test: SPOT length analysis, dot 27, HRP-S-protein detection
T5 sequence (peptide): SDFAKNFVQT

[6] = biological target: T6, …; test: SPOT length analysis, dot 30, HRP-S-protein detection
T6 sequence (peptide): IFRSSDFAK

[7] = biological target: T7, sortilin peptide … on SPOT membrane; test: SPOT length analysis, dot 36, HRP-S-protein detection
T7 sequence (peptide, C-terminus anchored to the cellulose membrane through a beta-alanine linker): FAKNFVQTD

[8] = biological target: T8, IFRSSDFA; test: SPOT length analysis, dot 38, HRP-S-protein detection
T8 sequence (peptide): IFRSSDFA

[9] = biological target: T9, …; test: SPOT length analysis, dot 4, anti-histidine detection
T9 sequence (peptide): RIFRSSDFAKNFVQ

[10] = biological target: T10, FAKNFVQT; test: SPOT length analysis, dot 44, HRP-S-protein detection
T10 sequence (peptide): FAKNFVQT

[11] = biological target: T11, AKNFVQTD; test: SPOT length analysis, dot 45, HRP-S-protein detection
T11 sequence (peptide): AKNFVQTD

[12] = biological target: T12, RIFRSSD; test: SPOT length analysis, dot 46, HRP-S-protein detection
T12 sequence (peptide): RIFRSSD

[13] = biological target: T13, DFAKNFV; test: SPOT length analysis, dot 52, HRP-S-protein detection
T13 sequence (peptide): DFAKNFV

[14] = biological target: T14, FRSSDF; test: SPOT length analysis, dot 58, HRP-S-protein detection
T14 sequence (peptide): FRSSDF

[15] = biological target: T15, …; test: SPOT length analysis, dot 6, anti-histidine detection
T15 sequence (peptide): FRSSDFAKNFVQTD

[16] = biological target: T16, SDFAKN; test: SPOT length analysis, dot 61, HRP-S-protein detection
T16 sequence (peptide): SDFAKN

[17] = biological target: T17, KNFVQT; test: SPOT length analysis, dot 65, HRP-S-protein detection
T17 sequence (peptide): KNFVQT

[18] = biological target: T18, NFVQTD; test: SPOT length analysis, dot 66, HRP-S-protein detection
T18 sequence (peptide): NFVQTD

[19] = biological target: T19, RIFRS; test: SPOT length analysis, dot 67, HRP-S-protein detection
T19 sequence (peptide): RIFRS

[20] = biological target: T20, SSDFA; test: SPOT length analysis, dot 71, HRP-S-protein detection
T20 sequence (peptide): SSDFA

[21] = biological target: T21, SDFAK; test: SPOT length analysis, dot 72, HRP-S-protein detection
T21 sequence (peptide): SDFAK

[22] = biological target: T22, FVQTD; test: SPOT length analysis, dot 78, HRP-S-protein detection
T22 sequence (peptide): FVQTD

[23] = biological target: T23, …; test: SPOT length analysis, dot 8, anti-histidine detection
T23 sequence (peptide): IFRSSDFAKNFVQ

[24] = biological target: T24, IFRS; test: SPOT length analysis, dot 80, HRP-S-protein detection
T24 sequence (peptide): IFRS

[25] = biological target: T25, FRSS; test: SPOT length analysis, dot 81, HRP-S-protein detection
T25 sequence (peptide): FRSS

[26] = biological target: T26, FAKN; test: SPOT length analysis, dot 86, HRP-S-protein detection
T26 sequence (peptide): FAKN

[27] = biological target: T27, NFVQ; test: SPOT length analysis, dot 89, HRP-S-protein detection
T27 sequence (peptide): NFVQ

[28] = biological target: T28, VQTD; test: SPOT length analysis, dot 91, HRP-S-protein detection
T28 sequence (peptide): VQTD

[29] = biological target: T29, …; test: SPOT length analysis, dot 13, anti-histidine detection
T29 sequence (peptide): FRSSDFAKNFVQ

[30] = biological target: T30, …; test: SPOT length analysis, dot 21, anti-histidine detection
T30 sequence (peptide): SDFAKNFVQTD

[31] = biological target: T31, …; test: SPOT length analysis, dot 26, anti-histidine detection
T31 sequence (peptide): SSDFAKNFVQ

[32] = biological target: T32, …; test: SPOT length analysis, dot 28, anti-histidine detection
T32 sequence (peptide): DFAKNFVQTD

[33] = biological target: T6, …; test: SPOT length analysis, dot 30, anti-histidine detection
[34] = biological target: T33, …; test: SPOT length analysis, dot 31, anti-histidine detection
T33 sequence (peptide): FRSSDFAKN

[35] = biological target: T34, SSDFAKNF; test: SPOT length analysis, dot 41, anti-histidine detection
T34 sequence (peptide): SSDFAKNF

[36] = biological target: T35, SDFAKNFV; test: SPOT length analysis, dot 42, anti-histidine detection
T35 sequence (peptide): SDFAKNFV

[37] = biological target: T36, SDFAKNF; test: SPOT length analysis, dot 51, anti-histidine detection
T36 sequence (peptide): SDFAKNF

[38] = biological target: T37, KNFVQTD; test: SPOT length analysis, dot 55, anti-histidine detection
T37 sequence (peptide): KNFVQTD

[39] = biological target: T16, SDFAKN; test: SPOT length analysis, dot 61, anti-histidine detection
[40] = biological target: T38, DFAKNF; test: SPOT length analysis, dot 62, anti-histidine detection
T38 sequence (peptide): DFAKNF

[41] = biological target: T18, NFVQTD; test: SPOT length analysis, dot 66, anti-histidine detection
[42] = biological target: T21, SDFAK; test: SPOT length analysis, dot 72, anti-histidine detection
[43] = biological target: T22, FVQTD; test: SPOT length analysis, dot 78, anti-histidine detection
[44] = biological target: T25, FRSS; test: SPOT length analysis, dot 81, anti-histidine detection
[45] = biological target: T39, DFAK; test: SPOT length analysis, dot 85, anti-histidine detection
T39 sequence (peptide): DFAK

[46] = biological target: T28, VQTD; test: SPOT length analysis, dot 91, anti-histidine detection
[47] = biological target: T40, sortilin 4-mer peptide RIFR (length analysis); test: SPOT length analysis, dot 79, anti-histidine detection
T40 sequence (peptide, C-terminus anchored to the cellulose membrane through a beta-alanine linker): RIFR

[48] = biological target: T41, sortilin peptide … (synthetic, soluble); test: SPOT length analysis, dot 11 (peptide here cellulose-bound), HRP-S-protein detection
T41 sequence (peptide): RIFRSSDFAKNF

BLU Sprotein [1]: 199000 BLU | BLU Sprotein [2]: 127000 BLU | BLU His [3]: 113000 BLU | BLU Sprotein [4]: 18400 BLU | BLU Sprotein [5]: 19100 BLU | BLU Sprotein [6]: 25700 BLU | BLU Sprotein [7]: 18800 BLU | BLU Sprotein [8]: 24400 BLU | BLU His [9]: 141000 BLU | BLU Sprotein [10]: 23600 BLU | BLU Sprotein [11]: 15300 BLU | BLU Sprotein [12]: 21500 BLU | BLU Sprotein [13]: 17400 BLU | BLU Sprotein [14]: 16900 BLU | BLU His [15]: 18800 BLU | BLU Sprotein [16]: 15600 BLU | BLU Sprotein [17]: 14300 BLU | BLU Sprotein [18]: 14500 BLU | BLU Sprotein [19]: 137000 BLU | BLU Sprotein [20]: 14700 BLU | BLU Sprotein [21]: 14800 BLU | BLU Sprotein [22]: 15100 BLU | BLU His [23]: 41600 BLU | BLU Sprotein [24]: 111000 BLU | BLU Sprotein [25]: 37000 BLU | BLU Sprotein [26]: 13700 BLU | BLU Sprotein [27]: 13400 BLU | BLU Sprotein [28]: 13800 BLU | BLU His [29]: 25800 BLU | BLU His [30]: 15700 BLU | BLU His [31]: 17800 BLU | BLU His [32]: 17400 BLU | BLU His [33]: 20800 BLU | BLU His [34]: 20400 BLU | BLU His [35]: 15500 BLU | BLU His [36]: 16300 BLU | BLU His [37]: 17200 BLU | BLU His [38]: 18300 BLU | BLU His [39]: 15100 BLU | BLU His [40]: 15200 BLU | BLU His [41]: 15400 BLU | BLU His [42]: 15900 BLU | BLU His [43]: 22400 BLU | BLU His [44]: 20100 BLU | BLU His [45]: 14400 BLU | BLU His [46]: 15100 BLU | BLU His [47]: 127000 BLU | BLU Sprotein [48]: 166000 BLU
B1: recombinant his-S-tagged pro-domain of human BDNF (residues Ala1-Arg110), from pET-30 Xa/LIC, E. coli (protein, not shown: small tags and cut ends)
chain: APMKEANIRGQGGLAYPGVRTHGTLESVNGPKAGSGLTSLADTFEHVIEELLDEDQKVRPNEENNKDADLYTSRVMLSSQVPLEPPLLFLLEEYKNYLDAANMSMRVRR
